Measurements reported in patent US20220162261A1 (published 2022).
Bridge positions count the residues as written; N and C are the ends. Square brackets hold non-standard residues; d marks the D form. Ends that are not written are not given here. Phe(4-COOH) = N[C@@H](Cc1ccc(C(=O)O)cc1)C(=O)O; Phe(4-tBu) = CC(C)(C)c1ccc(C[C@H](N)C(=O)O)cc1; NMeR = CN[C@@H](CCCNC(=N)N)C(=O)O; NMeE = CN[C@@H](CCC(=O)O)C(=O)O; β3hE = N[C@@H](CCC(=O)O)CC(=O)O; DIG = diglycolic acid (linker); Pen = CC(C)(S)[C@H](N)C(=O)O

Target: T1, human α4β7 integrin on cells (human, UniProt P13612 34-1032; P26010 20-798)
T1 construct: whole, on cells; also called α4β7 cell (Hu); RPMI8866 cells
Assay: RPMI8866 cell adhesion to MAdCAM-1

Binder | IC50 [nM]
Ac-[dK]C[NMeR]SDTLCW[dK]-NH2 (disulfide 2-8 (inferred); also: dimer linked by DIG, attachment not given here) [SEQ ID NO: 4] | > 10
Ac-[Pen][NMeR]SDTL[Pen]W[βGlu][dK]-NH2 (disulfide 1-7; not fully specified (residue 10); printed as (Ac Pen N-Me-R S D T L Pen W Beta-E k NH2)2 DIG; also: homodimer: two subunits joined by DIG linker) [SEQ ID NO: 1] | > 50
Ac-[Pen][NMeR]SDTL[Pen]HE[dK]-NH2 (disulfide 1-7; not fully specified (residue 10); printed as (Ac Pen N-Me-R S D T L Pen H E k NH2)2 DIG, disulfide Pen-Pen; also: dimer, two subunits joined by DIG linker) [SEQ ID NO: 25] | > 10
Ac-[Pen][NMeR]SDTL[Pen]HY[dK]-NH2 (disulfide 1-7; not fully specified (residue 10); printed as (Ac Pen N-Me-R S D T L Pen H Y k NH2)2 DIG, disulfide Pen-Pen; also: dimer, two subunits joined by DIG linker) [SEQ ID NO: 26] | > 100
Ac-[Pen][NMeR]SDTL[Pen][dW]E[dK]-NH2 (disulfide 1-7; not fully specified (residue 10); printed as (Ac Pen N-Me-R S D T L Pen w E k NH2)2 DIG, disulfide Pen-Pen; also: dimer, two subunits joined by DIG linker) [SEQ ID NO: 28] | > 50
Ac-[Pen][NMeR]SDTL[Pen]W[NMeE][dK]-NH2 (disulfide 1-7; not fully specified (residue 10); printed as (Ac Pen N-Me-R S D T L Pen W N-Me-E k NH2)2 DIG, disulfide Pen-Pen; also: dimer, two subunits joined by DIG linker) [SEQ ID NO: 31] | > 50
Ac-[Pen][NMeR]SDTL[Pen]WE[dK](Ac) (disulfide 1-7) [SEQ ID NO: 65] | > 10000
Ac-[Pen][NMeR]SDTL[Pen]W[dE][dK](Ac) (disulfide 1-7) [SEQ ID NO: 66] | > 10000
Ac-[Pen][NMeR]SDTL[Pen]W[dE][dK]-NH2 (disulfide 1-7; not fully specified (residue 10); printed as (Ac Pen N-Me-R S D T L Pen W e k NH2)2 IDA, disulfide Pen-Pen; also: homodimer via IDA linker) [SEQ ID NO: 70] | > 25
Ac-[Pen][NMeR]SDTL[Pen]W[dE][dK]-NH2 (disulfide 1-7; not fully specified (residue 10); printed as (Ac Pen N-Me-R S D T L Pen W e k NH2)2 IDA Biotine, disulfide Pen-Pen; also: homodimer via IDA linker bearing biotin) [SEQ ID NO: 71] | > 25
Ac-[Pen][NMeR]SDTL[Pen]W[dE][dK]-NH2 (disulfide 1-7; not fully specified (residue 10); printed as (Ac Pen N-Me-R S D T L Pen W e k NH2)2 IDA PEG4 Biotine, disulfide Pen-Pen; also: homodimer: two subunits linked by IDA via D-Lys10 side chain, PEG4-Biotine on the linker) [SEQ ID NO: 72] | > 25
Ac-[Pen][NMeR]SDTL[Pen]WQ[dK]-NH2 (disulfide 1-7; not fully specified (residue 10); printed as (Ac Pen N-Me-R S D T L Pen W Q k NH2)2 DIG, disulfide Pen-Pen; also: homodimer: two subunits linked by DIG via D-Lys10 side chain) [SEQ ID NO: 82] | > 50
Ac-[Pen][NMeR]SDTL[Pen]WN[dK]-NH2 (disulfide 1-7; not fully specified (residue 10); printed as (Ac Pen N-Me-R S D T L Pen W N k NH2)2 DIG, disulfide Pen-Pen; also: homodimer: two subunits linked by DIG via D-Lys10 side chain) [SEQ ID NO: 83] | > 50
Ac-[Pen][NMeR]SDTL[Pen]WF[dK]-NH2 (disulfide 1-7; not fully specified (residue 10); printed as (Ac Pen N-Me-R S D T L Pen W F k NH2)2 DIG, disulfide Pen-Pen; also: homodimer: two subunits linked by DIG via D-Lys10 side chain) [SEQ ID NO: 85] | ≤ 10
Ac-[Pen][NMeR]SDTL[Pen]WD[dK]-NH2 (disulfide 1-7; not fully specified (residue 10); printed as (Ac Pen N-Me-R S D T L Pen W D k NH2)2 DIG, disulfide Pen-Pen; also: homodimer: two subunits linked by DIG via D-Lys10 side chain) [SEQ ID NO: 87] | > 25
Ac-[Pen][NMeR]SDTL[Pen]W[dF][dK]-NH2 (disulfide 1-7; not fully specified (residue 10); printed as (Ac Pen N-Me-R S D T L Pen W f k NH2)2 DIG, disulfide Pen-Pen; also: homodimer via DIG linker) [SEQ ID NO: 91] | > 100
Ac-[Pen][NMeR]SDTL[Pen]W[dY][dK](DIG)-NH2 (disulfide 1-7; also: homodimer (…)2 DIG: the two subunits are joined through the K10 NZ by the DIG linker) [SEQ ID NO: 92] | > 50
Ac-[Pen][NMeR]SDTL[Pen]WP[dK](DIG)-NH2 (disulfide 1-7; also: homodimer (…)2 DIG: the two subunits are joined through the K10 NZ by the DIG linker) [SEQ ID NO: 94] | > 100
Ac-[Pen][NMeR]SDTL[Pen]WPK(DIG)-NH2 (disulfide 1-7; also: homodimer (…)2 DIG: the two subunits are joined through the K10 NZ by the DIG linker) [SEQ ID NO: 95] | > 100
Ac-[Pen][NMeR]SDTL[Pen]W[dP]K-NH2 (disulfide 1-7; also: homodimer, two subunits linked by DIG at Lys10) [SEQ ID NO: 96] | > 50
Ac-[Pen][NMeR]SDTL[Pen]W[dH][dK]-NH2 (disulfide 1-7; not fully specified (residue 10); printed as (Ac Pen N-Me-R S D T L Pen W h k NH2)2 DIG, disulfide Pen-Pen; also: homodimer: two subunits joined by DIG linker) [SEQ ID NO: 104] | > 100
Ac-[Pen][NMeR]SDTL[Pen]W[Phe(4-COOH)][dK]-NH2 (disulfide 1-7; not fully specified (residue 10); printed as (Ac Pen N-Me-R S D T L Pen W F(4-COOH) k NH2)2 DIG, disulfide Pen-Pen; also: homodimer: two subunits joined by DIG linker) [SEQ ID NO: 105] | > 50
Ac-[Pen][NMeR]SDTL[Pen]W[dW][dK]-NH2 (disulfide 1-7; not fully specified (residue 10); printed as (Ac Pen N-Me-R S D T L Pen W w k NH2)2 DIG, disulfide Pen-Pen; also: homodimer: two subunits joined by DIG linker) [SEQ ID NO: 110] | > 10
Ac-[Pen][NMeR]SDTL[Pen]Y[dE][dK]-NH2 (disulfide 1-7; not fully specified (residue 10); printed as (Ac Pen N-Me-R S D T L Pen Y e k NH2)2 DIG, disulfide Pen-Pen; also: homodimer: two subunits joined by DIG linker) [SEQ ID NO: 123] | > 50
Ac-[Pen][NMeR]SDTL[Pen]H[dE][dK]-NH2 (disulfide 1-7; not fully specified (residue 10); printed as (Ac Pen N-Me-R S D T L Pen H e k NH2)2 DIG, disulfide Pen-Pen; also: homodimer: two subunits joined by DIG linker) [SEQ ID NO: 124] | > 100
Ac-[Pen][NMeR]SDIL[Pen][Phe(4-tBu)][β3hE][dK]-NH2 (disulfide 1-7; not fully specified (residue 10); printed as (Ac Pen N-Me-R S D I L Pen F(4-tBu) b-H-E k NH2)2 IDA, disulfide Pen-Pen; also: homodimer: two subunits joined by IDA linker) [SEQ ID NO: 186] | > 100
